These results are taken from paper PMC7229662 (Proceedings of the National Academy of Sciences of the …, 2020).

This data set concerns the molecule itself. The data set is described as follows: cryo-EM structure.

Broadly, the stoichiometry N is a count of units in the complex or per binding partner.

B1: C331S variant of polycystin-2 (residues 53 to 792) (natural protein, human, UniProt Q13563 53-792, looked up)
chain: EIEMQRIRQAAARDPPAGAAASPSPPLSSCSRQAWSRDNPGFEAEEEEEEVEGEEGGMVVEMDVEWRPGSRRSAASSAVSSVGARSRGLGGYHGAGHPSGRRRRREDQGPPCPSPVGGGDPLHRHLPLEGQPPRVAWAERLVRGLRGLWGTRLMEESSTNREKYLKSVLRELVTYLLFLIVLCILTYGMMSSNVYYYTRMMSQLFLDTPVSKTEKTNFKTLSSMEDFWKFTEGSLLDGLYWKMQPSNQTEADNRSFIFYENLLLGVPRIRQLRVRNGSSSIPQDLRDEIKECYDVYSVSSEDRAPFGPRNGTAWIYTSEKDLNGSSHWGIIATYSGAGYYLDLSRTREETAAQVASLKKNVWLDRGTRATFIDFSVYNANINLFCVVRLLVEFPATGGVIPSWQFQPLKLIRYVTTFDFFLAACEIIFCFFIFYYVVEEILEIRIHKLHYFRSFWNCLDVVIVVLSVVAIGINIYRTSNVEVLLQFLEDQNTFPNFEHLAYWQIQFNNIAAVTVFFVWIKLFKFINFNRTMSQLSTTMSRCAKDLFGFAIMFFIIFLAYAQLAYLVFGTQVDDFSTFQECIFTQFRIILGDINFAEIEEANRVLGPIYFTTFVFFMFFILLNMFLAIINDTYSEVKSDLAQQKAEMELSDLIRKGYHKALVKLKLKKNTVDDISESLRQGGGKLNFDELRQDLKGKGHTDAEIEAIFTKYDQDGDQELTEHEHQQMRDDLEKEREDLDLD
For the protein B1, the “stoichiometry N” value worked out at 4.
